± gives the standard deviation of the averaged measurements.
Tested on: ATP
Assay: switch fluorescence ratio, 500 uM ATP over buffer (Cy3 cluster intensity, sum of 5 cycles each) (fold (ratio)); higher = stronger signal-on switching upon ATP binding; sequences stand for … in TCGTCGGCAGCGTCAGATGTGTATAAGAGACAGTTTTTTTTTTTTTTTTTTTTTTTTT…TC
Settings: aptamer strand: ATP DNA aptamer (quencher-CACCTGGGGGAGTATTGCGGAGGAAGG + anchor), 100 nM annealed; ATP concentration: 500 uM
Method in brief: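 Clusters carrying Cy3-labelled switching strands on a modified Illumina MiSeq flow-cell were annealed to 100 nM quencher-labelled ATP aptamer and imaged in selection buffer. They were imaged again after 15 min with 500 uM ATP at 22 °C, over five buffer/ATP cycles with NaOH stripping and re-annealing in between. For each cluster, the fluorescence ratio is the summed Cy3 intensity of the target cycles divided by that of the buffer cycles, averaged per switch-domain sequence. Clusters outside 100-1000 RFU were left out.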
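Also: ATP exposure 15 min at 22 °C before imaging.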

Sequence	switch fluorescence ratio
TTTCATAAGT	0.999 ± 0.025
TTTCATACTC	1.29 ± 0.21
TTTCATTTTA	0.9881 ± 0.0064
TTTCATTTTG	1.03 ± 0.017
TTTCCCGACG	1.12 ± 0.11
TTTCCCGGGC	1.01 ± 0.056
TTTCCGAGGA	1.03 ± 0.069
TTTCCGCAGG	1.24 ± 0.17
TTTCCGCTTA	3.67 ± 1.7
TTTCCGGCGT	1.03 ± 0.023
TTTCCGGGAC	1.41 ± 0.066
TTTCCTCAG	1.3 ± 0.4
TTTCCTTGTG	1.36 ± 0.53
TTTCCTTTTG	1.01 ± 0.054
TTTCGACACG	0.989 ± 0.018
TTTCGAGCTT	1.01 ± 0.022
TTTCGAGTGC	0.97892 ± 0.00082
TTTCGAGTTA	1.03 ± 0.063
TTTCGAGTTG	0.9809 ± 0.0029
TTTCGATGGG	0.978 ± 0.015
TTTCGGAAAA	1.24 ± 0.41
TTTCGGACCT	1.3458 ± 0.00061
TTTCGGCACT	1.01 ± 0.05
TTTCGGCCAA	1.62 ± 0.76
TTTCGGCGGG	1 ± 0.013
TTTCGGGAGC	0.977 ± 0.049

Sequence	switch fluorescence ratio
TTTCGGGAGT	0.976 ± 0.016
TTTCGGGCCA	1.12 ± 0.039
TTTCGGGCTG	0.984 ± 0.015
TTTCGGGGAC	1.43 ± 0.62
TTTCGGGGCT	1 ± 0.052
TTTCGGGGGC	0.993 ± 0.028
TTTCGGTCAT	1.02 ± 0.029
TTTCGGTTCC	1.05 ± 0.051
TTTCGTAAAA	1.002 ± 0.0057
TTTCGTATTC	1 ± 0.015
TTTCGTCCAA	1.04 ± 0.026
TTTCGTGGGT	0.9863 ± 0.006
TTTCGTGGTT	0.937 ± 0.021
TTTCGTTTGC	0.998 ± 0.046
TTTCTAAGAA	1.01 ± 0.013
TTTCTAATGG	1.02 ± 0.026
TTTCTAGGGT	0.994 ± 0.017
TTTCTCAAAA	1.03 ± 0.024
TTTCTCGG	1.07 ± 0.093
TTTCTCTGTT	1.02 ± 0.011
TTTCTGGAAT	0.991 ± 0.0019
TTTCTGGCCG	0.907 ± 0.046
TTTCTGGGGC	1.08 ± 0.08
TTTCTGGGTT	1.01 ± 0.023
TTTCTGTCGG	1.02 ± 0.032
TTTCTGTTGC	0.9887 ± 0.0047

Sequence	switch fluorescence ratio
TTTCTGTTGG	0.992 ± 0.035
TTTCTTCGGG	1 ± 0.019
TTTCTTGCAC	1.067 ± 0.0095
TTTCTTGCCA	1.02 ± 0.048
TTTCTTGGCT	1.2 ± 0.38
TTTCTTTCGG	1.03 ± 0.048
TTTCTTTT	1.042 ± 0.0027
TTTCTTTTAT	0.998 ± 0.016
TTTCTTTTCT	1.02 ± 0.032
TTTCTTTTTA	0.9791 ± 0.0032
TTTGAAAAGC	0.986 ± 0.018
TTTGAACGGG	1.01 ± 0.036
TTTGAAGCAT	1 ± 0.061
TTTGAAGGG	0.965 ± 0.012
TTTGAAGTCT	0.978 ± 0.09
TTTGAAGTTG	0.992 ± 0.029
TTTGAATAGA	0.992 ± 0.019
TTTGACAAAC	1.1 ± 0.073
TTTGACCTGT	0.991 ± 0.013
TTTGACGACA	1.11 ± 0.1
TTTGACGTTG	1.02 ± 0.047
TTTGAGAAGG	0.948 ± 0.022
TTTGAGACGG	0.99 ± 0.019
TTTGAGCTTG	0.981 ± 0.017
TTTGAGCTTT	1.02 ± 0.018
TTTGAGGGA	0.9945 ± 0.0052

Sequence	switch fluorescence ratio
TTTGAGGGGT	1.03 ± 0.065
TTTGAGTAGG	0.992 ± 0.038
TTTGAGTATA	0.992 ± 0.031
TTTGAGTGTA	0.969 ± 0.05
TTTGATAACG	0.987 ± 0.012
TTTGATAAGT	1.06 ± 0.07
TTTGATACCT	1.266 ± 0.0022
TTTGATACGC	1.04 ± 0.031
TTTGATAGAT	0.977 ± 0.012
TTTGATCAGC	0.983 ± 0.031
TTTGATCGCA	0.999 ± 0.025
TTTGATGGGC	0.9911 ± 0.0075
TTTGATGTAG	1.01 ± 0.011
TTTGATTCTT	1.004 ± 0.0033
TTTGATTGAG	0.953 ± 0.012
TTTGATTGTG	1.03 ± 0.029
TTTGATTTGG	0.921 ± 0.022
TTTGCAAACA	1 ± 0.061
TTTGCACTTT	1 ± 0.046
TTTGCAGCC	1.05 ± 0.066
TTTGCAGCGC	0.998 ± 0.021
TTTGCAGGGA	1.06 ± 0.1
TTTGCAGT	1.1 ± 0.12
TTTGCATATA	1.09 ± 0.11
TTTGCATGAA	0.992 ± 0.011
TTTGCATGTA	1.02 ± 0.027

Sequence	switch fluorescence ratio
TTTGCCCCTT	1.02 ± 0.03
TTTGCCTGCT	1.01 ± 0.043
TTTGCGAGCG	1.01 ± 0.023
TTTGCGGTGG	1.01 ± 0.075
TTTGCGTAAG	1.02 ± 0.033
TTTGCGTGCA	0.975 ± 0.011
TTTGCGTGTT	1.019 ± 0.0086
TTTGCTAAA	1.01 ± 0.046
TTTGCTCACG	1.01 ± 0.029
TTTGCTCTTA	1 ± 0.056
TTTGCTGCAG	1.003 ± 0.003
TTTGCTGGTG	1.1 ± 0.026
TTTGCTTA	0.995 ± 0.012
TTTGCTTATG	0.9924 ± 0.0045
TTTGGAAAGC	1.04 ± 0.019
TTTGGAAGTT	0.9817 ± 0.0035
TTTGGAATAC	2.92 ± 1
TTTGGAATCA	1.008 ± 0.0098
TTTGGAATGG	0.991 ± 0.054
TTTGGACGGC	1.04 ± 0.065
TTTGGACGGG	0.995 ± 0.033
TTTGGAGATA	1.03 ± 0.032
TTTGGAGCAG	1.14 ± 0.13
TTTGGAGGGT	1.02 ± 0.064
TTTGGAGGTA	1.01 ± 0.059
TTTGGAGTGC	1 ± 0.05

Sequence	switch fluorescence ratio
TTTGGAGTT	1 ± 0.02
TTTGGATATA	0.9726 ± 0.0041
TTTGGATATG	0.992 ± 0.037
TTTGGATGAC	1.01 ± 0.063
TTTGGATGGC	1.02 ± 0.057
TTTGGATGTT	1 ± 0.011
TTTGGATTAG	0.9746 ± 0.0037
TTTGGATTTG	1.03 ± 0.027
TTTGGCACAC	1.046 ± 0.0048
TTTGGCAGGG	0.996 ± 0.024
TTTGGCATCA	1.04 ± 0.013
TTTGGCCGGT	1.04 ± 0.056
TTTGGCGAAA	1.01 ± 0.019
TTTGGCGGAA	1.04 ± 0.011
TTTGGCGTTT	1.01 ± 0.024
TTTGGCTGGA	1.04 ± 0.072
TTTGGCTGTG	0.973 ± 0.029
TTTGGGAAAG	0.978 ± 0.032
TTTGGGAATG	1.06 ± 0.13
TTTGGGACCT	1 ± 0.048
TTTGGGACGG	0.999 ± 0.065
TTTGGGAGTT	1.05 ± 0.19
TTTGGGATAC	1.24 ± 0.28
TTTGGGATGG	0.983 ± 0.046
TTTGGGCCGT	0.971 ± 0.043
TTTGGGGATT	1.01 ± 0.036

Sequence	switch fluorescence ratio
TTTGGGGCGA	1.02 ± 0.031
TTTGGGGCGC	1.01 ± 0.048
TTTGGGGCGG	0.989 ± 0.038
TTTGGGGGCG	0.983 ± 0.081
TTTGGGGTTG	0.999 ± 0.037
TTTGGGTGGG	0.985 ± 0.041
TTTGGGTGTG	0.983 ± 0.016
TTTGGGTTAT	1.08 ± 0.21
TTTGGGTTTC	0.977 ± 0.017
TTTGGTAATT	1.03 ± 0.034
TTTGGTAGTT	0.987 ± 0.015
TTTGGTCGGG	1.01 ± 0.03
TTTGGTGAAC	1 ± 0.022
TTTGGTGGAA	1.01 ± 0.044
TTTGGTGTCC	0.984 ± 0.017
TTTGGTTATA	1 ± 0.012
TTTGGTTCCT	1.014 ± 0.0091
TTTGGTTCTG	1.01 ± 0.012
TTTGGTTGGA	0.992 ± 0.038
TTTGTAAAGA	1 ± 0.018
TTTGTAAGGT	1.032 ± 0.0089
TTTGTAAGTA	1 ± 0.013
TTTGTACGCA	1.71 ± 1
TTTGTACTGG	1.01 ± 0.041
TTTGTACTTT	1.01 ± 0.041
TTTGTAGGGA	1.02 ± 0.028

Sequence	switch fluorescence ratio
TTTGTATAGT	1.003 ± 0.0019
TTTGTATGG	0.9819 ± 0.0042
TTTGTATGGG	0.972 ± 0.018
TTTGTCAAAC	1.11 ± 0.13
TTTGTCATGG	1.04 ± 0.037
TTTGTCGCAT	1.14 ± 0.067
TTTGTCGCGG	1.02 ± 0.025
TTTGTCTGTG	0.983 ± 0.03
TTTGTGAATT	0.972 ± 0.012
TTTGTGATCA	0.998 ± 0.032
TTTGTGCACC	0.9941 ± 0.005
TTTGTGCGTC	0.977 ± 0.055
TTTGTGGACG	1.08 ± 0.08
TTTGTGGCTG	0.986 ± 0.037
TTTGTGGGC	0.981 ± 0.028
TTTGTGGGTA	1.01 ± 0.039
TTTGTGGTGG	1.01 ± 0.012
TTTGTGTAAA	1 ± 0.032
TTTGTGTGCG	0.904 ± 0.047

— the supplement of paper PMC10126150
